According to patent EP3470428A1:

Key:
[1] = biological target: human CD137-Fc chimeric protein (human) (UniProt Q07011); assay: SPR (Biacore T200); CD137-Fc captured by anti-human Fc
[2] = biological target: human PD-L1-Fc chimeric protein (human) (UniProt Q9NZQ7); assay: SPR (Biacore T200); PD-L1-Fc captured by anti-human Fc

Sequence of human CD137-Fc chimeric protein (human) (Q07011 24-186, change not shown): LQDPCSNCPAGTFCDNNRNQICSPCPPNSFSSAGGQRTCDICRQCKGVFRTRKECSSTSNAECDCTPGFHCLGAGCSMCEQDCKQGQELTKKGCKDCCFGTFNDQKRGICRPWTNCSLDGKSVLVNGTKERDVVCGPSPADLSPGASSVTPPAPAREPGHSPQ

B1: PRO1124: 38-02-A04 sc06 Full scDb-i/33_03_G02 sc01 scDb-o (bispecific antibody)
chain: DIQMTQSPSSLSASVGDRVTITCQASQSINDYLAWYQQKPGKAPKLLIYKASTLASGVPSRFSGSGSGTDFTLTISSLQPEDFATYYCQQGYIITDIDNVFGTGTKVTVLGGGGGSQVQLQESGPGLVKPSETLSLTCKASGFSFSNSYWICWVRQPPGKGLEWIGCTFVGSSDSTYYANWAKGRVTISKDSSKNQVSLKLSSVTAADTAVYFCARHPSDAVYGYANNLWGQGTLVTVSSGGGGSGGGGSGGGGSGGGGSLQMTQSPSSLSASVGDRVTITCQASQSINNVLAWYQQKPGKPPKLLIYRASTLASGVPSRFSGSGSGTDFTLTISSLQPEDFATYYCQSSYGNYGDFGTGTKVTVLGGGGGSQVQLQESGPGLVKPSETLSLTCKVSGFSFSSGYDMCWIRQPPGKGLEWIGCVVAGSVDITYYASWAKGRVTISVDSSKNQFSLKLSSVTAADTAVYYCARKDAYSDAFNLWGQGTLVTVSS
Question: How did the fold improvement of affinity against PRO885 [1] turn out when B1 was run?
Answer: Its fold improvement of affinity against PRO885 is greater than 200 fold.

B2: PRO1126: 38-02-A04 sc01 scDb-i/33_03_G02 sc03 Full scDb-o (bispecific antibody)
chain: DFQLTQSPSSLSASVGDRVTITCQASQSINDYLAWYQQKPGKSPKLLIYKASTLASGVPSRFSGSGSGTDFTLTISSLQPEDFATYYCQQGYIITDIDNVFGTGTKVTVLGGGGGSQVQLQESGPGLVKPSETLSLTCKVSGFSFSNSYWICWIRQPPGKGLEWIGCTFVGSSDSTYYANWAKGRVTISVDSSKNQFSLKLSSVTAADTAVYYCARHPSDAVYGYANNLWGQGTLVTVSSGGGGSGGGGSGGGGSGGGGSIQMTQSPSSLSASVGDRVTITCQASQSINNVLAWYQQKPGKAPKLLIYRASTLASGVPSRFSGSGSGTDFTLTISSLQPEDFATYYCQSSYGNYGDFGTGTKVTVLGGGGGSQSQLQESGPGLVKPSETLSLTCKASGFSFSSGYDMCWVRQPPGKGLEWIACVVAGSVDITYYASWAKGRVTISKDSSKNQVSLKLSSVTAADTAVYFCARKDAYSDAFNLWGQGTLVTVSS
Question: B2 was tested. Which fold improvement in affinity against the CDR graft (PRO885) [2] did it give?
Answer: The fold improvement in affinity against the CDR graft (PRO885) was 20 fold.
